Measured values published in publication PMC8865458.

test system: T1, His-NrtR (Pseudomonas aeruginosa PAK), ORF:d24b93ef; assay: EMSA; settings: 10 mM Tris, 1 mM DTT, pH 7.5, […]
T1 sequence: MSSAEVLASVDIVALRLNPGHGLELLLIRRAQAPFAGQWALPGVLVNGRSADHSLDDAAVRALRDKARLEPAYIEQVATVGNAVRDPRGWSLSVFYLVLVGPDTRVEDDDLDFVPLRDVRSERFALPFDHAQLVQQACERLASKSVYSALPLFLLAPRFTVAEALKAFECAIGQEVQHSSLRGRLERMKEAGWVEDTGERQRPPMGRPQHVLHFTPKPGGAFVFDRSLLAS

Q: “AGAAAATACCTTCCACTGCGAAATTTTGTAGTACAAGTGCTTGACGACTTATTTCACGTGATGAATTATGTACCCACATTCAGCCCCAACCCGTCAAGCGGAGGCTTCC (double strand) [nadD2 promoter fragment]” was tested. Which binding did it give?
A: Its binding is “binds”.

Q: For “CAGGAGTGATATTAGCGATTCCCAGTGCTCCCGCAACCTGCCAGAAAACCCAGCGAAGCTTCTTCGGCAGCCATTTTAGAAAAATATATTCCTTTAATTTCAATAAGTTACTTAAATTCACCGAGCGTTTTTGGCAAACCTCCCGGGCATTTATCTACTTAGGCTCACACGCCGTGTAAGTTAATGCTTACAAGAGCAGACACAAAAAACCCGGCGAACGCCGGGTCTTCAGTGGGTCTAAGGTTTTCCG (double strand) [rsmZ promoter fragment]”, which binding is on record?
A: Its binding is “binds”.

Q: For “CCGCGTTGCCGACCGTGGCCACCTGCTCGATGTAGGCCGGCTCCAGCCGCGCCTTGTCGCGCAGGGCGCGCACCGCCGCGTCGTCGAGGCTGTGGTCGGCGCTGCGGCCGTTGACCAGCACGCCGGGCAAGGCCCACTGGCCGGCGAAAGGCGCCTGGGCGCGGCGGATCAGCAACA (double strand) [nrtR coding fragment]”, which binding is on record?
A: The binding was “no binding”.

Q: For “GCTGGGAAGGCTCGCGATGATGAGGGGACTGGCCACTGTAGCGGGCCCGGCGCAGATCATCTTGACGCACGGCAAGCTCCCGGCGGCTGGGTGTTGCCGTCGGTCCGGCGAGCGGAACTATTACAGCGTGTAAGCCAAGGCTTACAAACGGCGGTGGTTTTGGCTGCTTTCTCCCCCTCGCGGAGATGCGTAATCTTCAAACCGTCAGGACATTGCGCAGGAAGCGCCAAAGACAATACGG (double strand) [rsmY promoter fragment]”, which binding is on record?
A: Its binding is “binds”.
